Experimental data published in patent publication US20230272045A1 (MONASH UNIVERSITY, published 2023).

Tests used:
Assay in all cases: ELISA; ECM protein coated at 100 nM, BMP-2 0.1 to 100 nM
human fibrinogen = molecular target: T1, human fibrinogen (human, UniProt P02671 20-644; P02675 31-491; P02679 27-437, limits assumed)
T1 construct: Coated on ELISA plates at 100 nM; also called Fg
T1 sequence (looked up) 1: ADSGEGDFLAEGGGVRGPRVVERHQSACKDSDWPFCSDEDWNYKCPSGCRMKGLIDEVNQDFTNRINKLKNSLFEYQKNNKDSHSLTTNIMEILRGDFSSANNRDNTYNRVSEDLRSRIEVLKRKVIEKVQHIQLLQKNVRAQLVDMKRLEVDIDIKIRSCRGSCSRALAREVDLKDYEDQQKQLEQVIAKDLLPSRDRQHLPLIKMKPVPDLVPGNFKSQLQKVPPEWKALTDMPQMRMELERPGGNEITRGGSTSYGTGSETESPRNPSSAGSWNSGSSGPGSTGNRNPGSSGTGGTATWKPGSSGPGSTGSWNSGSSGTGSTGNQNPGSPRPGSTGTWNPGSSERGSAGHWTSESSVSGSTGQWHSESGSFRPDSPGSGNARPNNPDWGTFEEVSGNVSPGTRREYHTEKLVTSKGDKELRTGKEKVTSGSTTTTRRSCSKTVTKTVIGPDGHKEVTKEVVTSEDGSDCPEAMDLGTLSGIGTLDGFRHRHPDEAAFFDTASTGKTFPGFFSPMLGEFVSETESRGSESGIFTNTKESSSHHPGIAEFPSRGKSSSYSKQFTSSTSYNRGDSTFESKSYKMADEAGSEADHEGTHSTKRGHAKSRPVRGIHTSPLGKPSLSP
T1 sequence (looked up) 2: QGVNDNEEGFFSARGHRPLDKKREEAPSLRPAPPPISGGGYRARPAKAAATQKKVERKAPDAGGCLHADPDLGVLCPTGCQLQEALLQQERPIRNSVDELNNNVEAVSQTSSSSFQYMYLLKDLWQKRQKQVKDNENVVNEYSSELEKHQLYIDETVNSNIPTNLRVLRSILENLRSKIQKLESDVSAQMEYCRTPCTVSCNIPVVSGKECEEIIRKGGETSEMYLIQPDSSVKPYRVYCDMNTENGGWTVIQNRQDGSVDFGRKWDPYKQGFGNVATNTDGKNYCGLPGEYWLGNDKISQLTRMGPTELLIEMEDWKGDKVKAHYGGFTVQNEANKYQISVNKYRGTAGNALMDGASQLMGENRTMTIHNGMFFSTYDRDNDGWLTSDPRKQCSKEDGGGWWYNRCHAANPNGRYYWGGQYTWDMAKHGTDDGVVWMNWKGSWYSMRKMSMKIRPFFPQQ
T1 sequence (looked up) 3: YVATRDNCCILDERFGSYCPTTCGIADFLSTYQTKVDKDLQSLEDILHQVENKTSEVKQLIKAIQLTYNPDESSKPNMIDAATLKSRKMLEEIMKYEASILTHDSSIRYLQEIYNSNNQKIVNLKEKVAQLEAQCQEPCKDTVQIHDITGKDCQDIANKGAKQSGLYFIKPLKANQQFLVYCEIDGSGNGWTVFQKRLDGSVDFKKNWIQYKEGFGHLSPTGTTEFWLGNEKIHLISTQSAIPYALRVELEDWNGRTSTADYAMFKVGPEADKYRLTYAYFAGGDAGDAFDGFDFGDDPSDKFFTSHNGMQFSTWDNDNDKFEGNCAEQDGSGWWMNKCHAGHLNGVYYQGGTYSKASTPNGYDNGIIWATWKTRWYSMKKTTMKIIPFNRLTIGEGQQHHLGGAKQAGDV
Protocol: (§1) ELISA plates (Greiner bio-one medium binding, Thermo Fisher Scientific) were coated with 100 nM of ECM proteins in […] of PBS for 1 h at 37° C. Then, wells were washed with […] of PBS-T (0.05% Tween-20) and blocked with […] of BSA solution (1% in PBS-T) for 1 h at room temperature. Wells without ECM protein coating, and wells blocked only with the BSA solution were used as controls for non-specific binding. ECM coated wells and control wells were further incubated 1 h at room temperature with solutions of BMP-2 (Peprotech), murine PDGF-BB (Peprotech), IL-1Ra (R&D Systems), or PIGF₁₂₃₋₁₄₁-fused proteins at concentrations ranging from 0 to 100 nM ([…] in PBS-T containing 0.1% BSA prepared in protein-low bind tubes (PROKEEP, Watson bio lab). Then, wells were washed 3 times with […] of PBS-T and incubated for 1 h with […] of biotinylated polyclonal detection antibodies in PBS-T with 0.1% BSA. Detection antibodies used were from BMP-2 DuoSet ELISA (R&D Systems, DY355) for BMP-2, PDGF-BB DuoSet ELISA (R&D Systems, DY8464) for PDGF-BB and IL-1Ra/IL-1F3
(§2) DuoSet ELISA (R&D Systems, DY480) for IL-1Ra. Wells were further washed 3 times with PBS-T and incubated for 20 min with […] of streptavidin-horseradish peroxidase (HRP). After three washes with PBS-T, TMB (ThermoFisher) was added followed by […] of stop solution (0.16M sulfuric acid). Concentrations of detection antibodies and streptavidin-HRP were used according to the manufacturer's instructions. To calculate the dissociation constants (KD) specific-binding values were fitted with a one site specific binding model using A450 nm=Bmax*[growth factors or IL-1Ra variants]/(KD+[growth factors or IL-1Ra variants]).

human vitronectin = molecular target: T2, human vitronectin (human, UniProt P04004 20-478)
T2 construct: Coated on ELISA plates at 100 nM; also called Vn
Protocol: as §1, §2

human plasma fibronectin = molecular target: T3, human plasma fibronectin (human, UniProt P02751-8 32-2296, limits assumed)
T3 construct: Coated on ELISA plates at 100 nM; also called Fn
Protocol: as §1, §2

T3 sequence (P02751 other isoform, or with tags, fused parts or gaps limits assumed): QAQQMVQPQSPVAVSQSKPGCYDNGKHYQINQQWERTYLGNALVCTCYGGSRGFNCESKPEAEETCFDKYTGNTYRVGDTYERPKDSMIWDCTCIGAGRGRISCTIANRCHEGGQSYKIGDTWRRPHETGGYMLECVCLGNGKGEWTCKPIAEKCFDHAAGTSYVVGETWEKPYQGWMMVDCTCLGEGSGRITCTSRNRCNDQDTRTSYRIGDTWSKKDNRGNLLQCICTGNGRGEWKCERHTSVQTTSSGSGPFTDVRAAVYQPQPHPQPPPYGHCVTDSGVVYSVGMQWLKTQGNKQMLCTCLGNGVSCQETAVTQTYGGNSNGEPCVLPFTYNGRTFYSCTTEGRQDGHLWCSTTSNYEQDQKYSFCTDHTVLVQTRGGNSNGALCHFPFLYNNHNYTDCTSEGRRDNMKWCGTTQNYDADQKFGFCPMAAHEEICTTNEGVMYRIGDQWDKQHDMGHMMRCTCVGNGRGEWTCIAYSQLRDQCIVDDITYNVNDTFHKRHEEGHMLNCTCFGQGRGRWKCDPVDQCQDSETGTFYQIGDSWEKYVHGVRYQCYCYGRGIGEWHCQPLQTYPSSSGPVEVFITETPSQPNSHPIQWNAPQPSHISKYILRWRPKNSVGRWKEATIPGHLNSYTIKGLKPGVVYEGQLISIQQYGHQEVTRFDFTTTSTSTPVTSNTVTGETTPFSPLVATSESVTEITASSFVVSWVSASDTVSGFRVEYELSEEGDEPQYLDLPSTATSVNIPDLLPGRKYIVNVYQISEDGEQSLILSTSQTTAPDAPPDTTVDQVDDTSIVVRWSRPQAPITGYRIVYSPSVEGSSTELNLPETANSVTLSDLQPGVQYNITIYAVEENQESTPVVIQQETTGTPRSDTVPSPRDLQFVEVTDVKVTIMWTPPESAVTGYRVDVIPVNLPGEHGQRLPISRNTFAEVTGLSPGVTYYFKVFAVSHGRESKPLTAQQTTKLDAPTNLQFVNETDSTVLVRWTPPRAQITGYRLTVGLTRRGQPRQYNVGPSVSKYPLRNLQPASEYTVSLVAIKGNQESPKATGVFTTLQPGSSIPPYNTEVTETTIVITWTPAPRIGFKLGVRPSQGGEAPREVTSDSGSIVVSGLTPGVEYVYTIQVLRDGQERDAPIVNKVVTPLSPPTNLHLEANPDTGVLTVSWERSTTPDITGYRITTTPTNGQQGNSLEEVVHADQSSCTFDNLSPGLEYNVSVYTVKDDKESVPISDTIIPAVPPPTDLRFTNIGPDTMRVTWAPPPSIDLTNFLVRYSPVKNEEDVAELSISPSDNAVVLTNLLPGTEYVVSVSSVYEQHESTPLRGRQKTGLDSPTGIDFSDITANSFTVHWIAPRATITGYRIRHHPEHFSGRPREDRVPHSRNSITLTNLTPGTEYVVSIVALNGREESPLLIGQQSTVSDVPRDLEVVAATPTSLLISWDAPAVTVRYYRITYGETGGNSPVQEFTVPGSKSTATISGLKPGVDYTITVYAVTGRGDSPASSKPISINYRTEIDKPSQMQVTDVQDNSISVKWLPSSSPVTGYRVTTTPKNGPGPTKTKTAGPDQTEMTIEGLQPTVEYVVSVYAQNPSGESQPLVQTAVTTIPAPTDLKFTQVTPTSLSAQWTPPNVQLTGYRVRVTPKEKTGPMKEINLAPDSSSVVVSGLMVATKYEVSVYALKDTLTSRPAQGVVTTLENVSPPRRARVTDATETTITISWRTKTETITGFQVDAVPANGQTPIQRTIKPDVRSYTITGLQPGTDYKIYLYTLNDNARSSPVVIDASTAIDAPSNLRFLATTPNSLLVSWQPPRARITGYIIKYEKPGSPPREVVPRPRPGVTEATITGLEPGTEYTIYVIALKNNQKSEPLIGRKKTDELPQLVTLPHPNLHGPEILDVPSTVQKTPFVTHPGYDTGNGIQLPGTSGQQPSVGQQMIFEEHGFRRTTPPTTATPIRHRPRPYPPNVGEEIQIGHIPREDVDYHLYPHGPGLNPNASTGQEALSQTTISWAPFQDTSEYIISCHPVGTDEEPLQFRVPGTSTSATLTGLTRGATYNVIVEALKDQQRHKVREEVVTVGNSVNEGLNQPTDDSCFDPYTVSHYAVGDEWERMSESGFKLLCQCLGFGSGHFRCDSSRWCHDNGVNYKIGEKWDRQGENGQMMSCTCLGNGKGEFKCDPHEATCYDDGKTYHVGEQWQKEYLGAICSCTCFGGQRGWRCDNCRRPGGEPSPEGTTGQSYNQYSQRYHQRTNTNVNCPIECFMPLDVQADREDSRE
T2 sequence (P04004 20-478 limits assumed): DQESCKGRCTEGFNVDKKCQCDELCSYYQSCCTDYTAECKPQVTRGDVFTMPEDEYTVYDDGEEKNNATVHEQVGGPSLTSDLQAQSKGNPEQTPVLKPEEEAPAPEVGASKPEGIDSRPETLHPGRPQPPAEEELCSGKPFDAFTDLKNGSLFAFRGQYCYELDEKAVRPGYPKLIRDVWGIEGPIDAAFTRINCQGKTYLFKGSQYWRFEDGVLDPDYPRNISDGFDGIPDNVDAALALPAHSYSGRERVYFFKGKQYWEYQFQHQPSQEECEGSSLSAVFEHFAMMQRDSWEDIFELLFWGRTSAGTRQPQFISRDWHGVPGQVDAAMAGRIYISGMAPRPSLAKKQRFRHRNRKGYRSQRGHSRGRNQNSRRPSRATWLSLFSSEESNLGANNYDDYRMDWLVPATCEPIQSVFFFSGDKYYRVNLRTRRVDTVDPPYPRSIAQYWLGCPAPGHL

binding result (human fibrinogen): binds | binding result (human vitronectin): binds | binding result (human plasma fibronectin): binds
B1: BMP-2 (bone morphogenetic protein-2, Peprotech) (ligand, murine, UniProt P21274 281-394, looked up)
chain: QAKHKQRKRLKSSCKRHPLYVDFSDVGWNDWIVAPPGYHAFYCHGECPFPLADHLNSTNHAIVQTLVNSVNSKIPKACCVPTELSAISMLYLDENEKVVLKNYQDMVVEGCGCR
notes: also called wild-type BMP-2
